Experimental data published in US20110059095A1 (Regeneron, published 2011).
Where no end group is shown, it is not given here. The star is where a group is joined. Biotin = O=C1N[C@H]2[C@H](CS[C@H]2CCCCC(=O)*)N1

T1: Peptide A (human PAR-2), unbiotinylated (Human)
T1 construct: also called Peptide A No Biotin
T1 peptide: GTNRSSKGRSLIGKVDGT

T2: Peptide A (human PAR-2), N-terminal biotinylated (Human, N-terminal biotin via G4S linker)
T2 construct: also called Peptide A N-Term
T2 peptide: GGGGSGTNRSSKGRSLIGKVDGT

T3: Peptide B (human PAR-2), C-terminal biotinylated (Human, not fully specified)
T3 construct: also called Peptide B C-Term
T3 peptide: SLIGKVDGTSHVTGGGGGS-biotin

T4: Peptide B (human PAR-2), N-terminal biotinylated (Human)
T4 construct: also called Peptide B N-Term
T4 peptide: Biotin-GGGGSSLIGKVDGTSHVTG


Legend:
[1] = target: T5, full length human PAR-2 (human, UniProt P55085 26-397); test: MSD cell binding
T5 construct: overexpressed on HEK293-derived 293/D9 cells; also called 293/D9/hPAR-2rec cells
Description: HEK293 cells were transfected with an NF-κB-luciferase-IRES-eGFP reporter plasmid. […] A clonal cell line, named D9, having low background levels of luciferase activity and high levels of eGFP when induced with IL-1β was made by a series of successive sorts of cell populations using flow cytometry. The 293/D9 cell line was then separately transfected with human PAR-2 or mouse PAR-2 to create the stable cell lines 293/D9/h PAR-2rec and 293/D9/m PAR-2rec, respectively.
Cells were plated on MSD high-bind 96 well plates at a density of 4×10⁴ cells/well in PBS and incubated for one hour at room temperature. Cells were then blocked in PBS with 2% BSA and incubated at room temperature for one hour. Anti-PAR-2 antibodies (ranging from 100 nM to 0.098 nM) were serially diluted two-fold in PBS with 0.5% BSA and incubated with the cells for one hour at room temperature followed by washing in PBS with 0.5% BSA. Sulfo-tagged anti-human IgG antibody (MSD) at a concentration of 0.1 μg/ml was then added to the cell/antibody mixture and incubated at room temperature for an additional hour. After another wash, a 1× non-surfactant containing read buffer was added and electro-chemiluminescent signal was read on the MSD Sector Imager. Signal of antibody binding to 293/D9 cells was subtracted from signal to 293/D9/hPAR-2rec or 293/D9/mPAR-2rec cells. Subtracted data were analyzed using a sigmoidal dose-response model in GraphPad Prism and EC₅₀ and Bₘₐₓ values were reported (Table 18). EC₅₀ values are defined as the antibody concentration required to achieve 50% maximal binding (Bₘₐₓ) to cells.

[2] = target: T1, Peptide A (human PAR-2), unbiotinylated; test: SPR, antibody captured
Description: (§1) Equilibrium dissociation constants (KD values) for antigen binding to selected purified PAR-2 antibodies were determined by surface kinetics using a real-time surface plasmon resonance biosensor assay. Antibody was captured on either a rabbit anti-mouse IgG polyclonal antibody (GE Healthcare, Piscataway, N.J.) surface or a goat anti-human IgG polyclonal antibody (Jackson Immuno Research Lab, West Grove, Pa.) surface created through direct amine chemical coupling to a BIACORE™ CM5 sensor chip to form a captured antibody surface. […] Antigen-antibody binding and dissociation were monitored in real time at room temperature. Kinetic analysis was performed to calculate KD and half-life of antigen/antibody complex dissociation (Table 10). For those antibodies where no T_{1/2} value is shown, steady state analysis was used to calculate the KD value. NB: no binding observed under current experimental conditions. ND: not determined.

[3] = target: T6, Peptide F (monkey PAR-2), N-terminal biotinylated (Monkey (Macaca mulatta), N-terminal biotin via G4S linker); test: SPR, antibody captured
T6 construct: also called Peptide F N-Term
Description: as §1

[4] = target: T5, full length human PAR-2; test: cell-based or functional assay
[5] = target: T1, Peptide A (human PAR-2), unbiotinylated; test: peptide ELISA titration
Description: (§2) Anti-PAR-2 antibodies were tested for their ability to bind to the PAR-2 peptides. Various PAR-2 Peptides (Table 3) were coated onto 96-well plates at a concentration of 2 μg/ml and incubated overnight followed by blocking in a suitable blocking agent for one hour. […] Purified anti-PAR-2 antibodies were added to the plate coated with PAR-2 peptides to a final concentration ranging from 0.2 to 2.0 μg/ml and incubated for one hour at room temperature. Detection of bound antibodies was determined with Horse-Radish Peroxidase (HRP) conjugated anti-mouse or human IgG (Jackson Immuno Research Lab, West Grove, Pa.) and developed by standard colorimetric response using tetramethylbenzidine (TMB) substrate. Absorbance was read at OD₄₅₀ for 0.1 second.
(§3) In another experiment, selected anti-PAR-2 antibodies cloned onto human IgG4 were tested for binding to unbiotinylated and biotinylated forms of PAR-2 peptides (Peptides A, E, F and G; as described above). […] Absorbance values at 450 nm were analyzed using a sigmoidal dose-response model in GraphPad Prism (GraphPad Software, Inc., La Jolla, Calif.) and EC₅₀ values were reported (Table 9). EC₅₀ values are defined as the antibody concentration required to achieve 50% maximal binding to PAR-2 peptide.

[6] = target: T2, Peptide A (human PAR-2), N-terminal …; test: peptide ELISA titration
Description: as §2, §3

[7] = target: T7, Peptide A (human PAR-2), C-terminal biotinylated (Human, C-terminal biotin via G4S linker); test: peptide ELISA titration
T7 construct: also called Peptide A C-Term
Description: as §2, §3

[8] = target: T6, Peptide F (monkey PAR-2), N-terminal …; test: peptide ELISA titration
Description: as §2, §3

[9] = target: T7, Peptide A (human PAR-2), C-terminal …; test: SPR, peptide immobilized
Summary of the method: (§4)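 Neutravidin was amine-coupled to a C1 or CM5 chip, and N- or C-terminal biotinylated peptide was captured at low density (<1RU). Purified antibody at 5–100 μg/ml was injected at 50 μl/min for 300 s, with binding and dissociation monitored in real time at 25° C. KD was derived from surface kinetics.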

[10] = target: T3, Peptide B (human PAR-2), C-terminal …; test: SPR, peptide immobilized
Summary of the method: as §4

[11] = target: T2, Peptide A (human PAR-2), N-terminal …; test: SPR, peptide immobilized
[12] = target: T4, Peptide B (human PAR-2), N-terminal …; test: SPR, peptide immobilized
[13] = target: T6, Peptide F (monkey PAR-2), N-terminal …; test: SPR, peptide immobilized

T6 sequence (peptide, as listed by the source): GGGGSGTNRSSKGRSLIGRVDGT
T5 sequence (P55085 26-397 G138A limits assumed): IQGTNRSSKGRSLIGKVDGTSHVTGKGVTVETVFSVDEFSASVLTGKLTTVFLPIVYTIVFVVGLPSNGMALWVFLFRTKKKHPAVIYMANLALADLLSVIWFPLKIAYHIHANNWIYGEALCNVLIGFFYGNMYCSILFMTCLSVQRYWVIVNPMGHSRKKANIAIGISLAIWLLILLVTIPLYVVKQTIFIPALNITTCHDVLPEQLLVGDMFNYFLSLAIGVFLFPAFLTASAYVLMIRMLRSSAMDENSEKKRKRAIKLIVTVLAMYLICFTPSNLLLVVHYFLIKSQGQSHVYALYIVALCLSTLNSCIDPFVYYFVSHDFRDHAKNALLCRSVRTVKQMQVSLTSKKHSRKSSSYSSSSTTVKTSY

Binder | Bmax [1] [MSD Unit] | EC50 [1] [nM] | Kd [2] [nM] | T1/2 [2] [min] | Kd [3] [nM] | T1/2 [3] [min] | IC50, NF-kB-luciferase, 20 nM Trypsin [4] [nM] | EC50 [5] [nM] | EC50 [6] [nM] | EC50 [7] [nM] | EC50 [8] [nM] | Kd [9] [nM] | T1/2 [9] [min] | Kd [10] [nM] | T1/2 [10] [min] | Kd [11] [nM] | T1/2 [11] [min] | Kd [12] [nM] | Kd [13] [nM] | T1/2 [13] [min] | further results
H4H584P (antibody, human IgG4, V domains shown, also called H1H584P variable regions) VH: QVQLVESGGGVVQPGRSLRLSCVASGFTFSRYGMHWVRQAPGKGLEWVVVISYDGINKYYADSVKGRFTISRDNSKNTVYLQMNSLRAEDTAVYYCAKGDFWSGYFDYWGQGTLVTVSS VL: DIVMTQTPLSSPVTLGQPASISCRSSQSLVHSDGNTYLSWLHQRPGQPPRLLIYKISNRFSGVPDRFSGSGAGTDFTLQISRVEAEDVGIYYCMQATQFPTFGGGTKVEIK | 26000 | 1.45 | 22 | 0.73 | 93.3 | 0.23 | 5.6 | 0.012 | 0.019 | 0.015 | 0.012 | 0.688 | 55 | 1.66 | 15 | 0.525 | 43 | 3.2 | 0.565 | 40 | T1/2 [12]: 30 min
H4H585P (antibody, human IgG4, V domains shown, also called H1H585P variable regions) VH: QVQLVESGGGVVQPGRSLRLSCVASGFTFSRYGMHWVRQAPGKGLEWLIVISYDGINKYYADSVKGRFTISRDNSKNTVYLQMNSLRAEDTAVYYCAKGDFWSGYFDYWGQGTLVTVSS VL: DIVMTQTPLSSPVTLGQPASISCRSSQSLVHSDGNTYLSWLHQRPGQPPRLLIYKISNRFSGVPDRFSGSGAGTDFTLQISRVEAEDVGIYYCMQGTQFPTFGGGTKVEIK | 22500 | 1.95 | 8.78 | 3.7 | 46.2 | 2 | 8.9 | 0.017 | 0.026 | 0.021 | 0.017 | 0.151 | 493 | 0.376 | 123 | 1.69 | 48 | 5.41 | 0.899 | 66 | T1/2 [12]: 63 min
H4H583P (antibody, human IgG4, V domains shown, also called H1H583P variable regions) VH: QVQLVESGGGVVQPGMSLRLSCTASGFTFRRYGMHWVRQAPGKGLEWVAVIWYDGSNKYYADSVKGRFTITRDNSKNTLYLQMNSLRAEDTAIYFCASEITIGDWFDPRGQGTLVTVSS VL: AIQMTQSPSSLSASVGDRVTITCRASQGIRNDLGWFQQKPGKVPKLLIYAASTLHSGVPSRFSGSGFGTDFTLTISSLQPEDFATYYCLQDFNYPLTFGGGTKVEIK | 13300 | 2.12 | 37.1 | 0.37 | 112 | 0.47 | 14 | 0.008 | 0.015 | 0.018 | 0.013 | 0.898 | 34 | – | – | 0.412 | 46 | – | 0.291 | 73 | binding result [10]: no binding; binding result [12]: no binding
H4H588N (antibody, human IgG4, V domains shown, also called H2M588N variable regions) VH: EVQLLESGGGLVQPGGSLRLSCAASGFTFSSYAMTWVRQAPGKGLYWVSAISGGRGSAYYADSVKGRFTISRDNSKNTLYLQMNSLRAEDTAVYYCAKEGDSGYDLAYWGRGTLVTVSS VL: DIQMTQSPSSLSASVGDRVTITCRARQGISNNLAWLQQKPGKAPKSLIYAASSLQSGIPSKFSGSGSGTYFTLTISSLQPEDFATYYCQQYKSSPLTFGGGTKVEIK | 27500 | 5.95 | 4.95 | 25.1 | 10.8 | 20 | 16.9 | 0.01 | 0.019 | 0.016 | 0.012 | 0.517 | 141 | 1.03 | 70 | 1.05 | 189 | 0.0272 | 1.81 | 94 | T1/2 [12]: > 1160 min

Further binders by falling EC50 [1], results first:

Bmax [1] [MSD Unit] | EC50 [1] [nM] | Kd [2] [nM] | T1/2 [2] [min] | Kd [3] [nM] | T1/2 [3] [min] | IC50, NF-kB-luciferase, 20 nM Trypsin [4] [nM] | EC50 [5] [nM] | EC50 [6] [nM] | EC50 [7] [nM] | EC50 [8] [nM] | Kd [9] [nM] | T1/2 [9] [min] | Kd [10] [nM] | T1/2 [10] [min] | Kd [11] [nM] | T1/2 [11] [min] | Kd [12] [nM] | Kd [13] [nM] | T1/2 [13] [min] | Binder | further results
25000 | 1.86 | 15 | 4.1 | 49.4 | 2 | 4.1 | 0.038 | 0.077 | 0.076 | 0.061 | 0.143 | 479 | 0.453 | 96 | 1.61 | 46 | 5.44 | 0.796 | 70 | H4H579P (antibody, human IgG4, V domains shown, also called H1H579P variable regions) VH: QVQLVESGGGVVQPGRSLRLSCVASGFTFSRYGMHWVRQAPGKGLEWLIVISYDGINKYYADSVKGRFTISRDNSKNTVYLQMNSLRAEDTGVYYCAKGDFWSGYFDYWGQGTLVTVSS VL: DIVMTQTPLSSPVTLGQPASISCRSSQSLVHSDGNTYLSWLHQRPGQPPRLLIYKISNRFSGVPDRFSGSGAGTDFTLQISRVEAEDVGIYYCMQGTQFPTFGGGTKVEIK | T1/2 [12]: 55 min
28200 | 0.652 | 9.44 | 1.4 | 36.6 | 0.53 | 1.1 | 0.012 | 0.02 | 0.028 | 0.02 | 0.237 | 134 | 0.346 | 49 | 0.498 | 41 | 2.72 | 0.272 | 78 | H4H581P (antibody, human IgG4, V domains shown, also called mAb H4H581P; H1H581P variable regions) VH: QVQLVESGGGVVQPGRSLRLSCVASGFTFSRYGIHWVRQAPGKGLEWVIVISYDGINKYYADSVKGRFTISRDNSKNTVYLQMNSLRAEDTAVYYCAKGDFWSGYFDYWGQGTLVTVSS VL: DIVMTQTPLSSPVTLGQPASISCRSSQSLVHSDGNTYLSWLHQRPGQPPRLLIYKISNRFSGVPDRFSGSGAGTDFTLQISRVEAEDVGIYYCMQATQFPTFGGGTKVEIK | T1/2 [12]: 38 min
